The source of these data is PMC7033278, “A Nonpeptide Oxytocin Receptor Agonist for a Durable Relief of Inflammatory Pain” (Scientific Reports, 2020).

In series [1] the target is T1, ionotropic TRPV1 receptor (Homo sapiens, UniProt Q8NER1).
T1 construct: Eurofins (contract assay)
The experiment in a line: Eurofins functional profiling, TRPV1 agonist/antagonist. Type of series: cell-based. Conditions: 5 μM. On the procedure: In vitro profiling of LIT-001 was performed by Eurofins as described in the Eurofins SafetyScreen-Functional panel, 2018[31]. The hepatotoxicity of LIT-001 was studied with cryo-preserved mouse hepatocytes. After unfreezing (optiTHAW and optiINCUBATE media, Xenotech) and cell viability control, cells (2 × 10^6 cells/ml) were dispatched in 96 well microtiterplates. LIT-001 was added to reach a concentration 1 μM in the presence of 1 × 10^6 cells/mL in a volume of 100 μl/well. The incubation was stopped at 4, 20, 40, 80 and 120 min in adding 100 μl of acetonitrile at 0 °C. A positive control was treated in the same conditions. All samples were analyzed by UHPLC coupled to a mass spectrometer (Shimadzu LC-MS 8030).

The conditions of series [2]: stated for comparison, no reference given; cited from earlier work.
Series [3] deals with Transient Receptor Potential Vanilloid type-1 (TRPV1). Set-up: method as in PMID 29117570. Conditions: cited from earlier work.
Details of series [4]: method as in PMID 6831225. Conditions: rat CSF (abstract: humans and rats), cited from earlier work.
On the set-up of series [5]: method as in PMID 19183510. As to conditions: humans and rats; listed as OT; cited from earlier work.

Read-outs that look alike come from different tables or passages of the source.

T1 sequence (Q8NER1 whole entry): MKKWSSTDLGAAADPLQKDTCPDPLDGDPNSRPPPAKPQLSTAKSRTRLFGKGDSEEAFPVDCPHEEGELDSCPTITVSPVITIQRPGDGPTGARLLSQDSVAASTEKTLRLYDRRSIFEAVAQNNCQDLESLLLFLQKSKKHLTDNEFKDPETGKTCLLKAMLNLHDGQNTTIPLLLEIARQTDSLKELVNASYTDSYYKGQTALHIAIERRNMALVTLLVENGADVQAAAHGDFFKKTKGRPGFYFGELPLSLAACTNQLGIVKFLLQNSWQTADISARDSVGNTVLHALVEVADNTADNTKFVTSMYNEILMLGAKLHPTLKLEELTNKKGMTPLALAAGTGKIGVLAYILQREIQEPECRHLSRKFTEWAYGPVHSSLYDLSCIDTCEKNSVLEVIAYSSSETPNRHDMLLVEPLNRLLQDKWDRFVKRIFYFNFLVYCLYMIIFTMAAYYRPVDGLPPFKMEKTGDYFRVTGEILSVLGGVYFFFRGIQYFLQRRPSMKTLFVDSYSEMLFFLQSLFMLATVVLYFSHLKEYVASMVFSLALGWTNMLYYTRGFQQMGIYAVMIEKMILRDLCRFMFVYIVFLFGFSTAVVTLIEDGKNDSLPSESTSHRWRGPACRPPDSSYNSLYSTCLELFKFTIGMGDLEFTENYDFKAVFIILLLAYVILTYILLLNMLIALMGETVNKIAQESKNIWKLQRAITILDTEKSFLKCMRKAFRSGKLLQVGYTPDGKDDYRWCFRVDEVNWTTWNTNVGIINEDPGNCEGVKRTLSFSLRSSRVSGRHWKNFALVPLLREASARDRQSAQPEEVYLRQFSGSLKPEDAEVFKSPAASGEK

On to `Cc1ccccc1N1CCN(S(=O)(=O)C[C@]23CC[C@H](C[C@@H]2NC(=O)[C@@H](N)CCS(C)(=O)=O)C3(C)C)CC1` [L-368,699, reference compound], for which the “agonist or antagonist activity at TRPV1 receptor” value in series [1] was “neither LIT-001 nor the OT antagonist L-368,699 displayed any significant agonist or antagonist activity”.

For orientation: EC50 means the concentration at which the effect is half-maximal. Turning to Oxytocin, the half-life result in series [2] was “less than 15 min”. Further, the EC50 in series [3] was 316 nM. The “half-life in cerebrospinal fluid (CSF)” value is given as “around twenty” in series [4] and “around 20 minutes” in series [4] (listed as OT). Further, the “half-life in the blood circulation” value in series [5] was 5 min.
